One substance from paper PMC3854531 can be followed below.

The target in this assay is sDMA-containing peptide (Bio-…[sDMA]G[sDMA]G[sDMA]G[sDMA]KPN). The experiment in a line: SPR.

“His-tagged N-terminal deleted BmPAPI (ΔN-BmPAPI: amino acids 48–629) (domain or fragment)” came in with a Kd of 27 µM.
